Reference: patent publication US20070134720A1, “Method of detecting effect of controlling synoviolin activity” (priority 2003, published 2007)

Experiments:
[1] = molecular target: T1, synoviolin activity of ubiquitinating P4HA1 (Homo sapiens, UniProt Q86TM6); test: Inhibition of ubiquitination activity using ELISA; format: biochemical; conditions: anti-GST capture, anti-ubiquitin detection, OD 450 nm
T1 construct: comprises a MBP-fused synoviolin that lacks the transmembrane segment (TM) (synoviolin dTM); made in house; host or cells: Escherichia coli
T1 sequence (Q86TM6 246-617 limits assumed): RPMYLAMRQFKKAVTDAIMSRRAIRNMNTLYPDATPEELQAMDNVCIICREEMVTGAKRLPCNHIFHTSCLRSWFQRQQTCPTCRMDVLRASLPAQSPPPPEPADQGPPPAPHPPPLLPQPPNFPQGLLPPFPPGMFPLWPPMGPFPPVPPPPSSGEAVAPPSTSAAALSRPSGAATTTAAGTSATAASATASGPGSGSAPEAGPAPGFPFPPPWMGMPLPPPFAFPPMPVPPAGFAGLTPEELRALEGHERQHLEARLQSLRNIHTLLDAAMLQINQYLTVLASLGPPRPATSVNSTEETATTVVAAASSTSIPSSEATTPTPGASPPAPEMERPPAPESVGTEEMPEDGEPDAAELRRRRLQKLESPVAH
Experimental: A 96-well ELISA plate was adsorbed with an anti-GST antibody at 4° C. overnight and then blocked with 5% BSA/PBS solution at room temperature until it was used. The plate was washed twice before use with 300 μL of PBS containing 0.3% BSA (PBSA).
A standard reaction mixture comprising 80 ng MBP-synoviolin-His, 40 ng GST-P4HA1, 15 ng E1, 200 ng His-E2, 5 mM MgCl2, 2 mMATP, 1 mM DTT, 0.1% BSA, 0.3% DMSO, and a test compound in 30 μL of 50 mM HEPES (pH 7.5) solution was prepared in a reaction tube. After a 30 minute reaction at room temperature, 70 μL of a solution containing 70 mM EDTA and 50 mM HEPES was added to terminate the reaction. This (30 μl) was added to a plate previously containing 70 μL PBSA and incubated at room temperature for 1 hour. After washing three times with 300 μL of PBSA, 100 μL of a mouse anti-ubiquitin antibody solution diluted 1:5000 in PBSA was added, and the mixture was incubated at room temperature for 1 hour. After three washes with 300 μL of PBSA, 100 μL of a peroxidase-labeled anti-mouse IgG solution diluted 1:10000 in PBSA was added, and the mixture was incubated at room temperature for 1 hour. […] When a sufficient coloration was observed, 1 M phosphoric acid was added to terminate the reaction, and the optical density at 450 nm was measured.

[2] = molecular target: T1, synoviolin activity of ubiquitinating P4HA1; test: Inhibition of ubiquitination activity using energy transfer of XL665-Eu(K) (HTRF method); format: biochemical; conditions: Eu(K)-labeled ubiquitin, GST-P4HA1 substrate, compared with binding inhibition
Experimental: A method of high-throughput screening (HTS) for compounds that inhibit the synoviolin activity of ubiquitinating P4HA1 was investigated. A system was designed in which ubiquitination by Eu(K)-labeled ubiquitin was conducted using P4HA1 expressed as a GST-fused protein as a substrate. When P4HA1 underwent Eu(K)-labeled ubiquitination, energy transfer occurred between an XL665-labeled anti-GST antibody and an Eu(K)-labeled ubiquitin, and fluorescence was detected.
A standard reaction mixture comprising 60 ng MBP-synoviolin-His, 15 ng GST-P4HA1, 15 ng E1 (Boston Biochem), 200 ng His-E2, 6.25 nM Eu(K)-labeled ubiquitin (CIS bio international), 5 mM MgCl2, 2 mM ATP, 1 mM DTT, 0.1% BSA, 0.3% DMSO, and a test compound in 15 μL of a 20 mM HEPES (pH 7.5) solution was prepared using a 384-well plate. After a 30 minute reaction at 37° C., 5 μL of 0.5 M EDTA was added to terminate the reaction. To this was added 5 μL of 20 mM HEPES solution containing an XL665-labeled […] antibody (0.025 μg) and 1 M K, and the mixture was left to stand overnight at room temperature, and the fluorescence was measured using RUBYstar™.

DNVCIICREEMVTGAKRLDCN [SEQ ID NO: 5]
IC50 of inhibition of the ubiquitination of P4HA1 [1]: 55 µg/mL
concentration inhibiting the ubiquitination of P4HA1, relative to that for inhibition of the binding [2]: 20 times lower
